Paper PMC12158487, “Tracing the aggregation pathway of the scaffold protein DISC1: Structural implications for chronic mental illnesses” (Journal of Structural Biology: X, 2025)
Each block holds one molecule with its values, some of them ahead of it. Ends that are not written are not given here.

How the values were obtained:
[1] = target: DISC1 C-region L807-frameshift, His6 fusion (human) (UniProt Q9NRI5); experiment: ITC; 10 µM His-tagged protein alone in the 200 µL cell, 20 °C, stirred at 300 rpm; heat flow of self-association followed in real time, peak area integrated
[2] = target: the molecule itself; experiment: as above
[3] = target: T1, DISC1 C-region (WT), His6 fusion (human), Q9NRI5; experiment: dynamic light scattering; 10 µM protein, 20 °C, 500 µL sample, centrifuged at 21,000 x g before measurement; apparent hydrodynamic radii followed over time; details: remark: other sources report otherwise
T1 chain: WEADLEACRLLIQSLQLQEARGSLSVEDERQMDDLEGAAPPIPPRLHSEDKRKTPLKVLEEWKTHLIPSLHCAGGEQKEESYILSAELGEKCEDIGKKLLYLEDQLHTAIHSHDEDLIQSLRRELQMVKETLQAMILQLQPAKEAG

[4] = target: T1, DISC1 C-region (WT), His6 fusion …; experiment: ITC; 10 µM His-tagged WT-C-region alone in the cell, 30 °C; heat flow of self-association followed in real time, peak area integrated; details: remark: other sources report otherwise
[5] = target: T1, DISC1 C-region (WT), His6 fusion …; experiment: ITC; 10 µM His-tagged protein alone in the 200 µL cell, 20 °C, stirred at 300 rpm; heat flow of self-association followed in real time, peak area integrated; details: remark: other sources report otherwise
[6] = target: the molecule itself; experiment: ITC; one-week-old sample of S704C, 10 µM protein alone in the cell, 20 °C; heat flow of self-association followed in real time, peak area integrated

- dH [1]: -1060 kcal/mol
Molecule: DISC1 C-region L807-frameshift, His6 fusion (from UniProt Q9NRI5 691-807) (domain or fragment)

B1: DISC1 β-core (717-761), His6 fusion (domain or fragment, human, UniProt Q9NRI5 717-761, looked up)
chain: EDERQMDDLEGAAPPIPPRLHSEDKRKTPLKVLEEWKTHLIPSLH
modifications: also: His6 fusion, end not given here
notes: 717-761, numbered in the context of the full-length protein; also called β-core peptide; source: E. coli BL21 (DE3) pLysE T1R, purified (Co2+-NTA)
- dH [2]: -843 kcal/mol

- stoichiometry N [3]: 4
- dH [4]: -264 kcal/mol
- dH [5]: -547 kcal/mol
B2: DISC1 C-region (WT), His6 fusion, Q9NRI5 691-836 (domain or fragment)
chain: WEADLEACRLLIQSLQLQEARGSLSVEDERQMDDLEGAAPPIPPRLHSEDKRKTPLKVLEEWKTHLIPSLHCAGGEQKEESYILSAELGEKCEDIGKKLLYLEDQLHTAIHSHDEDLIQSLRRELQMVKETLQAMILQLQPAKEAG

B3: DISC1 C-region S704C, His6 fusion (domain or fragment, human, UniProt Q9NRI5 691-836, looked up)
chain: WEADLEACRLLIQCLQLQEARGSLSVEDERQMDDLEGAAPPIPPRLHSEDKRKTPLKVLEEWKTHLIPSLHCAGGEQKEESYILSAELGEKCEDIGKKLLYLEDQLHTAIHSHDEDLIQSLRRELQMVKETLQAMILQLQPAKEAG
notes: Disrupted in schizophrenia 1 (DISC1), human, C-region, res; 691-836, numbered in the context of the full-length protein, with S704C; also called S704C C-region; source: E. coli BL21 (DE3) pLysE T1R, purified (Co2+-NTA)
- dH [6]: -869 kcal/mol
- dH [2]: -240 kcal/mol

B4: DISC1 C-region S713E, His6 fusion (domain or fragment, human, UniProt Q9NRI5 691-836, looked up)
chain: WEADLEACRLLIQSLQLQEARGELSVEDERQMDDLEGAAPPIPPRLHSEDKRKTPLKVLEEWKTHLIPSLHCAGGEQKEESYILSAELGEKCEDIGKKLLYLEDQLHTAIHSHDEDLIQSLRRELQMVKETLQAMILQLQPAKEAG
notes: Disrupted in schizophrenia 1 (DISC1), human, C-region, res; 691-836, numbered in the context of the full-length protein, with S713E; in the cited work it may be a phosphomimetic made by people (surmise); also called S713E C-region variant; source: E. coli BL21 (DE3) pLysE T1R, purified (Co2+-NTA)
- dH [2]: -512 kcal/mol
